Experimental data: publication PMC5382271, “The conserved protein Seb1 drives transcription termination by binding RNA polymerase II and nascent RNA” (Nature Communications, 2017)
Where no end group is shown, it is not given here. FAM = 5'-fluorescein amidite

T1: Seb1-RRM388-540 (tag cleaved) (Schizosaccharomyces pombe, UniProt Q9UTE3 388-540)
T1 sequence: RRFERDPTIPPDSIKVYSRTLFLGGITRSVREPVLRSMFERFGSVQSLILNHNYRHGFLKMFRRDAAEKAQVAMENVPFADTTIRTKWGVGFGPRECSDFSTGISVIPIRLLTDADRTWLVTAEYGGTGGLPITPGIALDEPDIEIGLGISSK

T2: SUMO-RRM R428E (Schizosaccharomyces pombe, UniProt Q9UTE3 388-540, R428E)
T2 sequence: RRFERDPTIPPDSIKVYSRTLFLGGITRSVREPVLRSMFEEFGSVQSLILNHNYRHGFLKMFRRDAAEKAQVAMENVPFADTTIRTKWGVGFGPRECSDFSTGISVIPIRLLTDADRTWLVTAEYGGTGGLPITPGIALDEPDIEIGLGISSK

T3: SUMO-RRM F487A (Schizosaccharomyces pombe, UniProt Q9UTE3 388-540, F487A)
T3 sequence: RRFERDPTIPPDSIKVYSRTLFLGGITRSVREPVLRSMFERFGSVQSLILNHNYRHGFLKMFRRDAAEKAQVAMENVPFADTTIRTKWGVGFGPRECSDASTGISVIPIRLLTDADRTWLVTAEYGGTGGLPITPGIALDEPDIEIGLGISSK

T4: SUMO-RRM F449A (Schizosaccharomyces pombe, UniProt Q9UTE3 388-540, F449A)
T4 sequence: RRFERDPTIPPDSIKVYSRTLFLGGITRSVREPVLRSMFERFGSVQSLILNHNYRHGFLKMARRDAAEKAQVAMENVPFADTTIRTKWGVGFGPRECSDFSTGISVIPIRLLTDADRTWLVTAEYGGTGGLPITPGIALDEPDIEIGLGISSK

T5: SUMO-RRM R450A (Schizosaccharomyces pombe, UniProt Q9UTE3 388-540, R450A)
T5 sequence: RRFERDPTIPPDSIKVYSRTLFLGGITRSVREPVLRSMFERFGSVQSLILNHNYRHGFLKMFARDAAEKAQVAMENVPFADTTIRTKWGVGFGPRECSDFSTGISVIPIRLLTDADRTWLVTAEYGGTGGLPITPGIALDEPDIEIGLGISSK

T6: SUMO-RRM R504E (Schizosaccharomyces pombe, UniProt Q9UTE3 388-540, R504E)
T6 sequence: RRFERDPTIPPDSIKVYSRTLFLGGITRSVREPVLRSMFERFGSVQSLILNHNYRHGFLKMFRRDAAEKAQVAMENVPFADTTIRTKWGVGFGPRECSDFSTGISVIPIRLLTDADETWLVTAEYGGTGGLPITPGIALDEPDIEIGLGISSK

T7: SUMO-RRM R392E (Schizosaccharomyces pombe, UniProt Q9UTE3 388-540, R392E)
T7 sequence: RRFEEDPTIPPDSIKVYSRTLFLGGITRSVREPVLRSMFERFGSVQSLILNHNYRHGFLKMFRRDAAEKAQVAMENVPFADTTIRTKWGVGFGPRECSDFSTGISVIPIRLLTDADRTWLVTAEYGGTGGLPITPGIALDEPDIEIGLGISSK

T8: SUMO-RRM K402A (Schizosaccharomyces pombe, UniProt Q9UTE3 388-540, K402A)
T8 sequence: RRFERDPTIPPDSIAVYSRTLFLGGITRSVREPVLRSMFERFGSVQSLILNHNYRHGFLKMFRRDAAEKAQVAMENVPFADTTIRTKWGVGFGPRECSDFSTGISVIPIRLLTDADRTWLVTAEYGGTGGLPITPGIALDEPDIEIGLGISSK

T9: SUMO-RRM WT (Schizosaccharomyces pombe, UniProt Q9UTE3 388-540)
T9 sequence: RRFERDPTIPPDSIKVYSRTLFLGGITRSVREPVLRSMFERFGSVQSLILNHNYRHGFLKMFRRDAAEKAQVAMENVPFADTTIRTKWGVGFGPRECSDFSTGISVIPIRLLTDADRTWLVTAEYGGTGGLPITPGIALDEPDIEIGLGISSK

T10: SUMO-RRM R472E (Schizosaccharomyces pombe, UniProt Q9UTE3 388-540, R472E)
T10 sequence: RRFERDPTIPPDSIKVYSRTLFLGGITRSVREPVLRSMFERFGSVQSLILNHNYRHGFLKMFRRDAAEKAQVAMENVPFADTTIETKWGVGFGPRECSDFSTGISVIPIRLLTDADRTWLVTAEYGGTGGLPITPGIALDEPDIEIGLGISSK

T11: SUMO-RRM S492A (Schizosaccharomyces pombe, UniProt Q9UTE3 388-540, S492A)
T11 sequence: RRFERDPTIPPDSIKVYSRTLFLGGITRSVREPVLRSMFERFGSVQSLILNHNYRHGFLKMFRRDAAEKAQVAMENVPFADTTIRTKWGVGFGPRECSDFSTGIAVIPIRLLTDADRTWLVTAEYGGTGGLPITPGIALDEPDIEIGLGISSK

T12: Seb1-CID(1-152) (S. pombe, UniProt Q9UTE3 1-152)
T12 construct: The full-length parent construct in pET41a(+) has a C-terminal His8 tag; also called CID WT; source: E. coli Rosetta, purified (Ni-NTA, size-exclusion chromatography)
T12 sequence (looked up): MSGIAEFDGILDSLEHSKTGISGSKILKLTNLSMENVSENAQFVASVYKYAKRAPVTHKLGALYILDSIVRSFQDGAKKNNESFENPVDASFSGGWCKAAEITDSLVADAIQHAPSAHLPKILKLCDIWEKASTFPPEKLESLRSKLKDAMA

T13: FAM-tagged two-repeat non-phosphorylated CTD peptide
T13 chain: YSPTSPSYSPTSPS

T14: FAM-tagged two-repeat S2-phosphorylated CTD peptide
T14 chain: YSPTSPSYSPTSPS

T15: FAM-tagged two-repeat S5-phosphorylated CTD peptide
T15 chain: YSPTSPSYSPTSPS

B1: FAM-AUUAGUAAAA RNA (ssRNA)
RNA: AUUAGUAAAA
B2: FAM-tagged two-repeat non-phosphorylated CTD peptide (peptide)
chain: {FAM}-YSPTSPSYSPTSPS
B3: Seb1-CID(1-152), Q9UTE3 K121E (protein)
chain: MSGIAEFDGILDSLEHSKTGISGSKILKLTNLSMENVSENAQFVASVYKYAKRAPVTHKLGALYILDSIVRSFQDGAKKNNESFENPVDASFSGGWCKAAEITDSLVADAIQHAPSAHLPEILKLCDIWEKASTFPPEKLESLRSKLKDAMA
B4: Seb1-CID(1-152), Q9UTE3 K124E (protein)
chain: MSGIAEFDGILDSLEHSKTGISGSKILKLTNLSMENVSENAQFVASVYKYAKRAPVTHKLGALYILDSIVRSFQDGAKKNNESFENPVDASFSGGWCKAAEITDSLVADAIQHAPSAHLPKILELCDIWEKASTFPPEKLESLRSKLKDAMA
B5: Seb1-CID(1-152) (domain or fragment)
chain: MSGIAEFDGILDSLEHSKTGISGSKILKLTNLSMENVSENAQFVASVYKYAKRAPVTHKLGALYILDSIVRSFQDGAKKNNESFENPVDASFSGGWCKAAEITDSLVADAIQHAPSAHLPKILKLCDIWEKASTFPPEKLESLRSKLKDAMA
B6: Seb1-CID(1-152), Q9UTE3 Y64K (protein)
chain: MSGIAEFDGILDSLEHSKTGISGSKILKLTNLSMENVSENAQFVASVYKYAKRAPVTHKLGALKILDSIVRSFQDGAKKNNESFENPVDASFSGGWCKAAEITDSLVADAIQHAPSAHLPKILKLCDIWEKASTFPPEKLESLRSKLKDAMA
B7: Seb1-CID(1-152), Q9UTE3 S22D; K25E; K124E (protein)
chain: MSGIAEFDGILDSLEHSKTGIDGSEILKLTNLSMENVSENAQFVASVYKYAKRAPVTHKLGALYILDSIVRSFQDGAKKNNESFENPVDASFSGGWCKAAEITDSLVADAIQHAPSAHLPKILELCDIWEKASTFPPEKLESLRSKLKDAMA
B8: Seb1-CID(1-152), Q9UTE3 S22D; K25E (protein)
chain: MSGIAEFDGILDSLEHSKTGIDGSEILKLTNLSMENVSENAQFVASVYKYAKRAPVTHKLGALYILDSIVRSFQDGAKKNNESFENPVDASFSGGWCKAAEITDSLVADAIQHAPSAHLPKILKLCDIWEKASTFPPEKLESLRSKLKDAMA

Assays:
[1] = molecular target: T1, Seb1-RRM388-540 (tag cleaved); assay: fluorescence anisotropy; 25 mM Tris-HCl pH 8.0, 100 mM NaCl, 2 mM MgCl2, 1 mM DTT, 16.7% glycerol, 0.1% IGEPAL, 0.1 mg/ml tRNA, 2.5% RNasin, 25 C, 40 nM FAM-RNA; settings: protein: recombinant; tags: His6-SUMO removed with 3C protease; single strand
SUMO-RRM R428E = molecular target: T2, SUMO-RRM R428E; assay: as above; settings: protein: recombinant; tags: N-terminal His6-SUMO; single strand
SUMO-RRM F487A = molecular target: T3, SUMO-RRM F487A; assay: as above; settings: protein: recombinant; tags: N-terminal His6-SUMO; single strand
SUMO-RRM F449A = molecular target: T4, SUMO-RRM F449A; assay: as above; settings: protein: recombinant; tags: N-terminal His6-SUMO; single strand
SUMO-RRM R450A = molecular target: T5, SUMO-RRM R450A; assay: as above; settings: protein: recombinant; tags: N-terminal His6-SUMO; single strand
SUMO-RRM R504E = molecular target: T6, SUMO-RRM R504E; assay: as above; settings: protein: recombinant; tags: N-terminal His6-SUMO; single strand
SUMO-RRM R392E = molecular target: T7, SUMO-RRM R392E; assay: as above; settings: protein: recombinant; tags: N-terminal His6-SUMO; single strand
SUMO-RRM K402A = molecular target: T8, SUMO-RRM K402A; assay: as above; settings: protein: recombinant; tags: N-terminal His6-SUMO; single strand
SUMO-RRM WT = molecular target: T9, SUMO-RRM WT; assay: as above; settings: protein: recombinant; tags: N-terminal His6-SUMO; single strand
SUMO-RRM R472E = molecular target: T10, SUMO-RRM R472E; assay: fluorescence anisotropy; text: completely abolishes RNA binding; fitted Kd error exceeds value; 25 mM Tris-HCl pH 8.0, 100 mM NaCl, 2 mM MgCl2, 1 mM DTT, 16.7% glycerol, 0.1% IGEPAL, 0.1 mg/ml tRNA, 2.5% RNasin, 25 C, 40 nM FAM-RNA; settings: protein: recombinant; tags: N-terminal His6-SUMO; single strand
SUMO-RRM S492A = molecular target: T11, SUMO-RRM S492A; assay: fluorescence anisotropy; text: mild effect on binding; 25 mM Tris-HCl pH 8.0, 100 mM NaCl, 2 mM MgCl2, 1 mM DTT, 16.7% glycerol, 0.1% IGEPAL, 0.1 mg/ml tRNA, 2.5% RNasin, 25 C, 40 nM FAM-RNA; settings: protein: recombinant; tags: N-terminal His6-SUMO; single strand
Seb1-CID(1-152) = molecular target: T12, Seb1-CID(1-152); assay: fluorescence polarisation; fluorescence anisotropy; Seb1-CID(1-152) titrated against 75 nM N-terminally FAM-tagged two-repeat CTD peptide; 25 mM HEPES pH 7.3, 200 mM NaCl, 1 mM EDTA; 25 °C; settings: both partners purified
[2] = molecular target: T13, FAM-tagged two-repeat …; assay: fluorescence anisotropy (FA); settings: chain shown with the change; read at the highest titration point, Seb1-CID 500 µM; parent: est. 44; read off a plot
[3] = molecular target: T14, FAM-tagged two-repeat S2-phosphorylated …; assay: fluorescence anisotropy (FA); settings: chain shown with the change; read at the highest titration point, Seb1-CID 500 µM; parent: est. 110; read off a plot
[4] = molecular target: T15, FAM-tagged two-repeat S5-phosphorylated …; assay: fluorescence anisotropy (FA); settings: chain shown with the change; read at the highest titration point, Seb1-CID 500 µM; parent: est. 77; read off a plot
[5] = molecular target: FAM-tagged two-repeat S2-phosphorylated CTD peptide; assay: fluorescence polarisation; fluorescence anisotropy; Seb1-CID(1-152) titrated against 75 nM N-terminally FAM-tagged two-repeat CTD peptide; 25 mM HEPES pH 7.3, 200 mM NaCl, 1 mM EDTA; 25 °C
[6] = molecular target: FAM-tagged two-repeat S7-phosphorylated CTD peptide; assay: as above
[7] = molecular target: FAM-tagged two-repeat S5-phosphorylated CTD peptide; assay: as above

Binder	response [2]	response [3]	response [4]	also measured
B1	–	–	–	Kd [1]: 1.84 ± 0.63 µM; Kd (SUMO-RRM R428E): 2.87 ± 0.85 µM; Kd (SUMO-RRM F487A): 25.6 ± 15.7 µM; Kd (SUMO-RRM F449A): 1.99 ± 0.19 µM; Kd (SUMO-RRM R450A): 1.91 ± 0.71 µM; Kd (SUMO-RRM R504E): 2.37 ± 0.17 µM; Kd (SUMO-RRM R392E): 3.33 ± 0.53 µM; Kd (SUMO-RRM K402A): 2.49 ± 0.33 µM; Kd (SUMO-RRM WT): 1.72 ± 0.06 µM; Kd (SUMO-RRM R472E): 17.8 ± 27.5 µM; Kd (SUMO-RRM S492A): 4.2 ± 0.56 µM
B2	–	–	–	Kd (Seb1-CID(1-152)): > 1000 µM
B3	34	47	47	–
B4	56	59	58	–
B5	–	–	–	Kd [5]: 23.4 µM; Kd [6]: 242 µM; Kd [7]: 83.7 µM
B6	20	65	40	–
B7	33	22	27	–
B8	28	72	46	–
